# Results reported in patent US20240415975A1 (ABTIS, published 2024).
# Values joined by “and” are separate entries in the source; they are usually repeats but may differ in a detail not shown here. Equal entries are not always repeated.
# Tests used:
# [1] = target: Claudin 18.2 protein (CLDN18.2), expressed on cells (UniProt P56856); assay: cell-based ELISA (OD 450 nm) on SNU601 cells (CLDN18.2+); regression in GraphPad Prism
# [2] = target: Claudin 18.2 protein (CLDN18.2), expressed on cells (UniProt P56856); assay: cell-based ELISA (OD 450 nm) on MIA PaCa-2-CLDN18.2 cells; regression in GraphPad Prism
# [3] = target: Claudin 18.2 protein (CLDN18.2), expressed on cells (UniProt P56856); assay: cell-based ELISA (OD 450 nm) on PATU8988S cells (CLDN18.2+); regression in GraphPad Prism
# [4] = target: CLDN18.2 virus-like particle (VLP) in which the claudin 18.2 protein (CLDN18.2) was expressed (UniProt P56856); assay: indirect ELISA (OD 450 nm) on plate coated with CLDN18.2 VLP; regression in GraphPad Prism
# [5] = target: T1, Claudin 18.2 protein (CLDN18.2), expressed on cells (UniProt P56856-2 1-261); assay: cell-based or functional assay
# [6] = target: T2, Claudin 18.1 protein (CLDN18.1), expressed on CHO-K1 cells (UniProt P56856 1-261, limits assumed); assay: cell-based ELISA on CHO-K1 cells transiently transfected with CLDN18.1
# T2 construct: whole, on cells; also called CLDN18.1~CHO-K1
# Description: (§1) The measured results were used for regression analysis in GraphPad PRISM® 9.0 software to calculate EC50 and Bmax.
# [7] = target: T3, CLDN18.2 virus-like particle (VLP) in which the claudin 18.2 protein (CLDN18.2) was expressed (UniProt P56856 1-261); assay: indirect ELISA on plate coated with CLDN18.2 VLP; regression in GraphPad Prism (row labelled Kd, text says EC50)
# T3 construct: Bought reagent; also called CLDN18.2 VLP; CLDN18.2~VLP
# [8] = target: T1, Claudin 18.2 protein (CLDN18.2), …; assay: cell-based ELISA on CHO-K1 cells transiently transfected with CLDN18.2; regression in GraphPad Prism (row labelled Kd, text says EC50)
# Description: as §1
# Sequence of Zolbetuximab (antibody-B) (VH): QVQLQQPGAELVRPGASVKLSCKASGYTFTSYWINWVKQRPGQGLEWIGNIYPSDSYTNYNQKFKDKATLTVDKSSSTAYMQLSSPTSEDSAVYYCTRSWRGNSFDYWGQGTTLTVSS
# Sequence of Zolbetuximab (antibody-B) (VL): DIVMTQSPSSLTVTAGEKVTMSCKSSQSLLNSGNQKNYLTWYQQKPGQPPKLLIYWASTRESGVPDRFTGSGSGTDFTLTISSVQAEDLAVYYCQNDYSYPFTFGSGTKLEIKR
molecule,measurement,setting,value
Zolbetuximab (antibody-B),Bmax,[1],1.7
same,Bmax,[2],3.05
same,Bmax,[3],1.21
same,Bmax,[4],2.13
"ADC-A (MMAE conjugated with antibody-A) (antibody, human IgG1, kappa, V domains shown, payload (PEG8)2-BG-MMAE linked through a linker to lysine residue 246 or 248 (EU numbering) of each heavy chain (DAR 2), which of K246 or K248 carries the payload is not resolved) VH: QVQLVESGGGVVQPGRSLRLSCAASGFSLTTYGVHWVRQAPGKGLEWVAVIWAGGSTNYNSALMSRFTISRDNSKNTLYLQMNSLRAEDTAVYYCARAAYYGNGLDYWGQGTMVTVSS VL: DIVMTQSPLSLPVTPGEPASISCKSSQTLLNSGNQKNYLTWYLQKPGQSPQLLIYWASTGESGVPDRFSGSGSGTDFTLKISRVEAEDVGVYYCQNAYFYPFTFGGGTKVEIKR","IC50 (nM), cell viability (CellTiter-Glo), MIA PaCa-2 (CLDN18.2+)",[5],0.101 nM
same,"IC50 (nM), cell viability (CellTiter-Glo), NUGC4 (CLDN18.2+)",[5],1.59 nM
same,"IC50 (nM), cell viability (CellTiter-Glo), PATU8988S (CLDN18.2+)",[5],0.279 nM
same,"IC50 (nM), cell viability (CellTiter-Glo), SNU601 (CLDN18.2+)",[5],0.095 nM
same,binding result,[6],no binding
same,Kd,[7],0.0527 µg/mL and 0.351 nM
same,Kd,[8],0.123 µg/mL and 0.82 nM
"anti-Claudin 18.2 antibody (Anti-CLDN18.2 mAb) (antibody-A) (antibody, human IgG1, kappa, V domains shown, two heavy and two light chains; Elsewhere called an IgG1 type anti-CLDN18.2 antibody; Obtained from GenScript ProBio) VH: QVQLVESGGGVVQPGRSLRLSCAASGFSLTTYGVHWVRQAPGKGLEWVAVIWAGGSTNYNSALMSRFTISRDNSKNTLYLQMNSLRAEDTAVYYCARAAYYGNGLDYWGQGTMVTVSS VL: DIVMTQSPLSLPVTPGEPASISCKSSQTLLNSGNQKNYLTWYLQKPGQSPQLLIYWASTGESGVPDRFSGSGSGTDFTLKISRVEAEDVGVYYCQNAYFYPFTFGGGTKVEIKR",binding result,[6],no binding
same,Kd,[7],0.0319 µg/mL and 0.212 nM
same,Kd,[8],0.0636 µg/mL and 0.424 nM
